For experiment [1], the system named is anti-Pfs230 human monoclonal antibodies. Description: Western blotting of purified Pfs230D1+ with anti-Pfs230 human monoclonal antibodies. Type of experiment: binding. The conditions noted are these: Western blot, 10 μg/mL antibody, 20 ng protein per lane, non-reducing conditions. How it is done:
Samples were diluted with 4×LDS (Lithium dodecyl sulfate, Invitrogen) sample buffer, heated for 5 min at 90° C. and loaded in a final volume of 20 μL/well on SDS-PAGE gels (4-12% NuPAGE Bis-Tris, Invitrogen). Gels were run at 150-200 V for 35-50 min in 1×2-(N-morpholino) ethanesulfonic acid (MES) sodium dodecyl sulfate (SDS) running buffer and stained with SimplyBlue™ SafeStain (Invitrogen).
Following SDS-PAGE, proteins were transferred onto nitrocellulose membrane and Western blot procedure using anti-Pfs230 human monoclonal antibodies (non patent related). The human monoclonal antibodies were tested for reactivity at 10 μg/mL to 20 ng of Pfs230D1+(non-tagged or tagged) loaded per lane. A secondary goat anti-human antibody was used at 1/2000 dilution followed by development with BCIP/NBT substrate.

The next experiment relates to P. falciparum NF54 line. Description: Rat immunization, ELISA of antiserum and standard membrane feeding assay (SMFA) of purified IgG. The class given is in vivo, Plasmodium falciparum. The conditions noted are these: SD rats i.m., 20 μg antigen with composition of Example 6 as adjuvant; 250 ug/mL total IgG with complement in SMFA. How it is done: SD rats (Charles River Laboratories Japan) were immunized intramuscularly (i.m.) in the thigh muscles of the hind limb with 50 μL of a vaccine formulation consisting of 20 μg of an antigen, tagged Pfs230D1+ or non-tagged Pfs230D1+, and 8110 μg of the composition of Example 6 as an adjuvant (which corresponded to 10 μg of Compound A); 20 μg of tagged Pfs230D1+ alone for FIG. 2 or 20 μg of tagged Pfs230D1+ and 8110 μg of the composition of Example 6 for FIG. 5; or 8110 μg of the composition of Example 6 alone as a control. Rats received two or three injections on day 0 and 21 or day 0, 21, and 42. On day 42 or 56, rats were sacrificed, and blood was collected. After collection of the whole blood, the blood allowed to clot by leaving it undisturbed at room temperature for 4 hours. The clot was removed by centrifuging at 2,000×g for 10 minutes in a refrigerated centrifuge.
For the sera on day 42 or 56, the antibody levels against corresponding proteins were determined individually by ELISA (FIG. 2a for tagged Pfs230D1+, FIG. 5a for non-tagged Pfs230D1+).
For each group, an equal amount of serum from each rat was pooled regardless of ELISA units. […]
The standardized methodology for performing the SMFA is known in the art. […] Only midguts from mosquitoes with any eggs in their ovaries at the time of dissection were analysed (FIG. 2b for tagged Pfs230D1+, FIG. 5b for non-tagged Pfs230D1+). […]
A general note: An ELISA detects its analyte on a solid surface through an enzyme-linked reagent.

B1: non-tagged Pfs230D1+: N-terminal Pfs230 fragment (aa 552-731, N585Q) without C-terminal tag, SEQ ID NO: 1 (protein)
chain: DVGVDELDKIDLSYETTESGDTAVSEDSYDKYASQNTNKEYVCDFTDQLKPTESGPKVKKCEVKVNEPLIKVKIICPLKGSVEKLYDNIEYVPKKSPYVVLTKEETKLKEKLLSKLIYGLLISPTVNEKENNFKEGVIEFTLPPVVHKATVFYFICDNSKTEDDNKKGNRGIVEVYVEPYG
modifications: Pfs230D1+
For B1, the “reactivity to anti-Pfs230 monoclonal antibodies” value in experiment [1] is recorded as “reacted under non-reducing conditions”; in experiment [1] (listed as Non-tagged Pfs230D1+), “reacted to two conformational dependent anti-Pfs230 monoclonal antibodies”. Moreover, the “induction of functional antibodies (ELISA units, transmission reducing activity in SMFA)” value in the experiment with P. falciparum NF54 line is “induced functional antibodies in rats”.

B2: tagged Pfs230D1+: N-terminal Pfs230 fragment (aa 552-731, N585Q) with C-terminal six histidine tag, SEQ ID NO: 2 (protein)
chain: DVGVDELDKIDLSYETTESGDTAVSEDSYDKYASQNTNKEYVCDFTDQLKPTESGPKVKKCEVKVNEPLIKVKIICPLKGSVEKLYDNIEYVPKKSPYVVLTKEETKLKEKLLSKLIYGLLISPTVNEKENNFKEGVIEFTLPPVVHKATVFYFICDNSKTEDDNKKGNRGIVEVYVEPYGHHHHHH
modifications: C-terminal His6 tag; Pfs230D1+
Take B2: the “reactivity to anti-Pfs230 monoclonal antibodies” value in experiment [1] is “reacted under non-reducing conditions”; in experiment [1] (listed as Pfs230D1+ containing histidine-tag), “reacted to two conformational dependent anti-Pfs230 monoclonal antibodies”. Moreover, the “induction of functional antibodies (ELISA units, transmission reducing activity in SMFA)” value in the experiment on P. falciparum NF54 line was “induced functional antibodies in rats”.
